Key:
huCD3e-mFc [1] = target: T1, huCD3e-mFc (human, UniProt P07766 23-126); experiment: Pool 3 screen, R2
T1 construct: not shown: mFc, not described

huCD3e-mFc [2] = target: T1, huCD3e-mFc; experiment: Pool 3 screen
huCD3e-mFc [3] = target: T1, huCD3e-mFc; experiment: Pool 3 screen, R3
human EGFR [4] = target: T2, human EGFR (human, UniProt P00533 25-645, limits assumed); experiment: BLI, room temperature
T2 construct: on HT-29 cells in the cytotoxicity assay; also called epidermal growth factor receptor
Method: Each construct was expressed in small-scale and purified. Thermal stability was determined by Differential Scanning Fluorimetry. Melting temperature (Tₘ) determined by Differential Scanning Fluorimetry experiments described herein were performed either in duplicate or triplicate using GloMelt™ dye and QuantStudio5™. GloMelt™ dye undergoes fluorescence enhancement upon binding to hydrophobic regions of denatured proteins. Therefore, the dye can be used to detect protein unfolding or measure thermal stability. GloMelt™ dye is optimized for detection in the SYBR® Green channel of qPCR instruments. The Differential Scanning Fluorimetry experiments were performed in 96-well plates with 10 μg protein/reaction (equal to 0.5 mg/mL final protein concentration), reaction buffer, and GloMelt™ 10× dye according to manufacturer's instructions. Fluorescence of 96-well plates was read and melt curve plots were generated in the QuantStudio5™ qPCR system. Binding affinity was analyzed with bio-layer interferometry at room temperature with human EGFR as the antigen.

cynomolgus monkey EGFR = target: T3, cynomolgus monkey EGFR (cynomolgus monkey, UniProt A0A2K5WK39 25-645); experiment: SPR Biacore 37 C
T3 construct: also called Cyno EGFR

human EGFR [5] = target: T2, human EGFR; experiment: SPR Biacore 37 C

T1 sequence (P07766 23-126): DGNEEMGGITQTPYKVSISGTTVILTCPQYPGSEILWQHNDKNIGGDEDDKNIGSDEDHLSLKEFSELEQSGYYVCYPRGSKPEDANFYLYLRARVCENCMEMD

| Binder | Kd (huCD3e-mFc [1]) [nM] | Kd (huCD3e-mFc [2]) [nM] | Kd (huCD3e-mFc [3]) [nM] | other results |
| --- | --- | --- | --- | --- |
| AC3800 (CD3.296) (scFv, V domains shown, Pool 3 format (remarks)) VH: EVQLVESGGGIVQPGGSLRLSCAASGFTFSTYAMNWVRQAPGKGLEWVGRIRTKRNNYATYYADSVKGRFTISRDDSKNTVYLQMNSLKTEDTAVYYCVRHENFGNSYVSWFAHWGQGTLVTVSS VL: ELVVTQEPSLTVSPGGTVTLTCRSSNGAVTSSNYANWVQQKPGQAPRGLIGGTNKRAPGTPARFSGSLEGGKAALTLSGVQPEDEAVYYCALWYPNLWVFGGGTKLTVL | 17 | 4.74 |  |  |
| AC3801 (CD3.297) (scFv, V domains shown, Pool 3 format (remarks)) VH: EVQLVESGGGIVQPGGSLRLSCAASGFTFSTYAMNWVRQAPGKGLEWVGRIRTKRNNYATYYADSVKGRFTISRDDSKNTVYLQMNSLKTEDTAVYYCVRHENFGNSYVSWFAHWGQGTLVTVSS VL: ELVVTQEPSLTVSPGGTVTLTCRSSNGAVTSSNYANWVQQKPGQAPRGLIGGTNKRAPGTPARFSGSLGGGKAALTLSGVQPEDEAVYYCALWYPNLWVFGGGTKLTVL | 21.2 | 3.92 |  |  |
| AC3802 (CD3.298) (scFv, V domains shown, Pool 3 format (remarks)) VH: EVQLVESGGGIVQPGGSLRLSCAASGFTFSTYAMNWVRQAPGKGLEWVGRIRTKRNNYATYYADSVKGRFTISRDDSKNTVYLQMNSLKTEDTAVYYCVRHENFGNSYVSWFAHWGQGTLVTVSS VL: ELVVTQEPSLTVSPGGTVTLTCRSSNGAVTSSNYANWVQQKPGQAPRGLIGGTNKRAPGTPARFSGSLDGGKAALTLSGVQPEDEAVYYCALWYPNLWVFGGGTKLTVL | 8 | 4.07 |  |  |
| AC3805 (CD3.301) (scFv, V domains shown, Pool 3 format (remarks)) VH: EVQLVESGGGIVQPGGSLRLSCAASGFTFSTYAMNWVRQAPGKGLEWVGRIRTKRNDYATYYADSVKGRFTISRDDSKNTAYLQMNSLKTEDTAVYYCVRHENFGNSYVSWFAHWGQGTLVTVSS VL: ELVVTQEPSLTVSPGGTVTLTCRSSNGAVTSSNYANWVQQKPGQAPRGLIGGTNKRAPGTPARFSGSLLGGKAALTLSGVQPEDEAVYYCALWYPNLWVFGGGTKLTVL |  | 5.53 | 4.4 |  |
| AC3809 (CD3.305) (scFv, V domains shown, Pool 3 format (remarks)) VH: EVQLVESGGGIVQPGGSLRLSCAASGFTFSTYAMNWVRQAPGKGLEWVGRIRTKRNDYATYYADSVKGRFTISRDDSKNTAYLQMNSLKTEDTAVYYCVRHENFGNSYVSWFAHWGQGTLVTVSS VL: ELVVTQEPSLTVSPGGTVTLTCRSSNGAVTSSNYANWVQQKPGQAPRGLIGGTNKRAPGTPARFSGSLEGGKAALTLSGVQPEDEAVYYCALWYPNLWVFGGGTKLTVL |  | 6.28 | 4.6 |  |
| AC3811 (CD3.307) (scFv, V domains shown, Pool 3 format (remarks)) VH: EVQLVESGGGIVQPGGSLRLSCAASGFTFSTYAMNWVRQAPGKGLEWVGRIRTKRNDYATYYADSVKGRFTISRDDSKNTAYLQMNSLKTEDTAVYYCVRHENFGNSYVSWFAHWGQGTLVTVSS VL: ELVVTQEPSLTVSPGGTVTLTCRSSNGAVTSSNYANWVQQKPGQAPRGLIGGTNKRAPGTPARFSGSLDGGKAALTLSGVQPEDEAVYYCALWYPNLWVFGGGTKLTVL |  | 6.35 | 4.8 |  |
| AC3813 (CD3.309) (scFv, V domains shown, Pool 3 format (remarks)) VH: EVQLVESGGGIVQPGGSLRLSCAASGFTFSTYAMNWVRQAPGKGLEWVGRIRTKRNDYATYYADSVKGRFTISRDDSKNTAYLQMNSLKTEDTAVYYCVRHENFGNSYVSWFAHWGQGTLVTVSS VL: ELVVTQEPSLTVSPGGTVTLTCRSSNGAVTSSNYANWVQQKPGQAPRGLIGGTNKRAPGTPARFSGSLLEGKAALTLSGVQPEDEAVYYCALWYPNLWVFGGGTKLTVL |  | 5.82 | 5.4 |  |
| AC3850 (CD3.346) (scFv, V domains shown, Pool 3 format (remarks)) VH: EVQLVESGGGIVQPGGSLRLSCAASGFTFSTYAMNWVRQAPGKGLEWVGRIRTKTNNYATYYADSVKGRFTISRDDSKNTVYLQMNSLKTEDTAVYYCVRHENFGNSYVSWFAHWGQGTLVTVSS VL: ELVVTQEPSLTVSPGGTVTLTCRSSNGAVTSSNYANWVQQKPGQAPRGLIGGTNKRAPGTPARFSGSLLGGKAALTLSGVQPEDEAVYYCALWYPNLWVFGGGTKLTVL | 10.8 | 9.83 |  |  |
| AC3860 (CD3.356) (scFv, V domains shown, Pool 3 format (remarks)) VH: EVQLVESGGGIVQPGGSLRLSCAASGFTFSTYAMNWVRQAPGKGLEWVGRIRTKTNDYATYYADSVKGRFTISRDDSKNTAYLQMNSLKTEDTAVYYCVRHENFGNSYVSWFAHWGQGTLVTVSS VL: ELVVTQEPSLTVSPGGTVTLTCRSSNGAVTSSNYANWVQQKPGQAPRGLIGGTNKRAPGTPARFSGSALGGKAALTLSGVQPEDEAVYYCALWYPNLWVFGGGTKLTVL |  | 29.4 | 19.7 |  |
| AC3881 (CD3.377) (scFv, V domains shown, Pool 3 format (remarks)) VH: EVQLVESGGGIVQPGGSLRLSCAASGFTFSTYAMNWVRQAPGKGLEWVGRIRTKRNNYATTYADSVKGRFTISRDDSKNTVYLQMNSLKTEDTAVYYCVRHENFGNSYVSWFAHWGQGTLVTVSS VL: ELVVTQEPSLTVSPGGTVTLTCRSSNGAVTSSNYANWVQQKPGQAPRGLIGGTNKRAPGTPARFSGSLLGGKAALTLSGVQPEDEAVYYCALWYPNLWVFGGGTKLTVL |  | 10.7 | 10.4 |  |
| AC3885 (CD3.381) (scFv, V domains shown, Pool 3 format (remarks)) VH: EVQLVESGGGIVQPGGSLRLSCAASGFTFSTYAMNWVRQAPGKGLEWVGRIRTKRNNYATYYADSVKGRFTISRDDSKNTVYLQMNSLKTEDTAVYYCVRHENFGASYVSWFAHWGQGTLVTVSS VL: ELVVTQEPSLTVSPGGTVTLTCRSSNGAVTSSNYANWVQQKPGQAPRGLIGGTNKRAPGTPARFSGSLLGGKAALTLSGVQPEDEAVYYCALWYPNLWVFGGGTKLTVL |  |  | 4.2 |  |
| AC1955 (EGFR.2/CD3.9 paTCE) (bispecific antibody, One polypeptide; also called EGFR-XPAT gen1; pJB0169) VL: DIQMTQSPSSLSASVGDRVTITCQASQDISNYLNWYQQKPGKAPKLLIYDASNLETGVPSRFSGSGSGTDFTFTISSLQPEDIATYFCQHFDHLPLAFGGGTKVEIK VH: QVQLQESGPGLVKPSETLSLTCTVSGGSVSSGDYYWTWIRQSPGKGLEWIGHIYYSGNTNYNPSLKSRLTISIDTSKTQFSLKLSSVTAADTAIYYCVRDRVTGAFDIWGQGTMVTVSS scFv: ELVVTQEPSLTVSPGGTVTLTCRSSTGAVTTSNYANWVQQKPGQAPRGLIGGTNKRAPGTPARFSGSLLGGKAALTLSGVQPEDEAEYYCALWYSNLWVFGGGTKLTVLGATPPETGAETESPGETTGGSAESEPPGEGEVQLLESGGGLVQPGGSLKLSCAASGFTFNTYAMNWVRQAPGKGLEWVARIRSKYNNYATYYADSVKDRFTISRDDSKNTAYLQMNNLKTEDTAVYYCVRHGNFGNSYVSWFAYWGQGTLVTVSS |  |  |  | Kd (human EGFR [4]): 0.72 nM |
| AMX-525 (1x-C) (bispecific antibody) GTSESATPESDIQMTQSPSSLSASVGDRVTITCQASQDISNYLNWYQQKPGKAPKLLIYDASNLETGVPSRFSGSGSGTDFTFTISSLQPEDIATYYCQHFDHLPLAFGQGTKVEIKSESATPESGPGTSPGATPESGPGTSESATPQVQLQESGPGLVKPSETLSLTCTVSGGSVSSGDYYWTWIRQPPGKGLEWIGHIYYSGNTNYNPSLKSRVTISVDTSKNQFSLKLSSVTAADTAVYYCARDRVTGAFDIWGQGTLVTVSSGGGGSELVVTQEPSLTVSPGGTVTLTCRSSNGAVTSSNYANWVQQKPGQAPRGLIGGTNKRAPGTPARFSGSLLEGKAALTLSGVQPEDEAVYYCALWYPNLWVFGGGTKLTVLSESATPESGPGTSPGATPESGPGTSESATPEVQLVESGGGIVQPGGSLRLSCAASGFTFSTYAMNWVRQAPGKGLEWVGRIRTKRNDYATYYADSVKGRFTISRDDSKNTLYLQMNSLKTEDTAVYYCVRHENFGNSYVSWFAHWGQGTLVTVSSGTATPESGPGEAGRSASHTPAGLTGPATPESGPGTSESATPESGPGSPAGSPTSTEEGTSESATPESGPGSEPATSGSETPGTSESATPESGPGTSTEPSEGSAPGTSTEPSEGSAPGTSTEPSEGSAPGTSTEPSEGSAPGTSTEPSEGSAPGTSTEPSEGSAPGSPAGSPTSTEEGTSTEPSEGSAPGTSESATPESGPGSEPATSGSETPGTSESATPESGPGSEPATSGSETPGTSESATPESGPGTSTEPSEGSAPGTSESATPESGPGSPAGSPTSTEEGSPAGSPTSTEEGSPAGSPTSTEEGTSESATPESGPGTSTEPSEGSAPGTSESATPESGPGSEPATSGSETPGTSESATPESGPGSEPATSGSETPGTSESATPESGPGTSTEPSEGSAPGSPAGSPTSTEEGTSESATPESGPGSEPATSGSETPGTSESATPESGPGSPAGSPTSTEEGSPAGSPTSTEEGTSTEPSEGSAPGTSESATPESGPGTSESATPESGPGTSPSATPESGPGSEPATSGSETPGSEPATSGSETPGSPAGSPTSTEEGTSTEPSEGSAPGTSTEPSEGSAPGSEPATSGSETPGTSESAGEPEA |  |  |  | Kd (cynomolgus monkey EGFR): 0.238 nM; koff (cynomolgus monkey EGFR): 0.00051 s⁻¹; kon (cynomolgus monkey EGFR): 2.12e+06 M⁻¹ s⁻¹; Kd (human EGFR [5]): 0.184 nM; koff (human EGFR [5]): 0.00036 s⁻¹; kon (human EGFR [5]): 2e+06 M⁻¹ s⁻¹ |

— patent publication US20260167728A1 (published 2026)
